Results on one molecule are retold here after patent US20200291118A1 (HANX BIOPHARMACEUTICS, published 2020).

Assay [1] deals with T1, hPD-1-hIgGFc antigen (human, UniProt Q15116 25-167, limits assumed).
T1 construct: not shown: human IgG Fc
In words: competition ELISA on coated hPD-1-hIgGFc; competitor PD-L2-his tag. Here is the method:
A 96-well ELISA plate was coated with hPD-1-hIgGFc antigen at a concentration of 1.0 μg/ml (100 μl per well) by incubation at 4° C. overnight.
After the 96-well ELISA plate was washed with the PBST buffer for five times and gently patted to dryness, HRP conjugated anti-his tag mouse monoclonal antibody as a secondary antibody in 1:750 dilution (50 μl per well) was added for incubation at 37° C. for 1 hour.

Assay [2] has as its target T2, hPD-1-his antigen (human, UniProt Q15116 25-167, limits assumed).
T2 construct: Coating antigen; not shown: his tag
In words: ELISA on coated hPD-1-his. Here is the method:
(§1) An ELISA plate was coated with hPD-1-his antigen at a concentration of 0.25 μg/ml (100 μl per well) by incubation at 4° C. overnight.
(§2) The ELISA plate coated with the hPD-1-his antigen was blocked with 1% BSA (diluted in the PBS buffer) at 37° C. for 2 hours, and then washed with 1×PBST buffer containing 1% Tween-20 for three times, with gently patting to dryness.
(§3) The absorbance of solution in each well was measured on a microplate reader under a wavelength of 450 nm.
Background: In an ELISA, binding on a coated surface is turned into a signal by an enzyme label.

The target in assay [3] is T1, hPD-1-hIgGFc antigen. The experiment in a line: competition ELISA on coated hPD-1-hIgGFc; competitor PD-L1-mIgG2aFc. Here is the method: A 96-well ELISA plate was coated with hPD-1-hIgGFc antigen at a concentration of 0.5 μg/ml (50 μl per well) by incubation at 4° C. overnight.
Assay [4] addresses T2, hPD-1-his antigen. The experiment in a line: ELISA on coated hPD-1-his; antibody 1:5 of 2 µg/ml. Here is the method: as §1, §2, §3

T2 sequence (Q15116 25-167 limits assumed): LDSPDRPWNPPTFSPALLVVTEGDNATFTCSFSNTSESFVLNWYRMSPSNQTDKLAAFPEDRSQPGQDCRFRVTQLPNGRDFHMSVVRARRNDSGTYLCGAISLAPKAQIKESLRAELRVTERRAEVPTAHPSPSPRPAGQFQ
T1 sequence (Q15116 25-167 limits assumed): as above

B1: humanized antibody H8 (anti-PD-1 IgG antibody) (antibody, V domains shown)
VH: EVQLVQSGGGLVQPGGSLKLSCAASGFTFSSYGMSWVRQAPGKGLDWVATISGGGRDTYYPDSVKGRFTISRDNSKNNLYLQMNSLRAEDTALYYCARQKGEAWFAYWGQGTLVTVSA
VL: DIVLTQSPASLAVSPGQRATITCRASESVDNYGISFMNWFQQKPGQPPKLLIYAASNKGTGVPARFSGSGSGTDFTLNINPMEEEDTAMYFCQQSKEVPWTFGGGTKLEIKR
notes: also called HX008; HX008 18A10 antibody
In general, IC50 refers to the concentration that gives 50% inhibition. One may read the EC50 as the concentration at which the effect is half-maximal. A higher EC50 goes with weaker potency. B1: the IC50 amounted to 2.7 nM with hPD-1-hIgGFc antigen [1] and 1 nM in the assay with hPD-1-hIgGFc antigen [3]. In the assay with hPD-1-his antigen [2], this molecule yielded a concentration for a half-maximal effect (EC50) of 0.05 nM. For the same molecule, the “absorbance at 450 nm” value with hPD-1-his antigen [4] was determined as 1.76.
